# From patent US20150344570A1 (published 2015)
# T1: FcγRIIb extracellular domain with C-terminal His tag (human, UniProt P31994 43-217)
# T1 construct: extracellular domain; also called 2b; FcgRIIb
# T1 sequence (looked up): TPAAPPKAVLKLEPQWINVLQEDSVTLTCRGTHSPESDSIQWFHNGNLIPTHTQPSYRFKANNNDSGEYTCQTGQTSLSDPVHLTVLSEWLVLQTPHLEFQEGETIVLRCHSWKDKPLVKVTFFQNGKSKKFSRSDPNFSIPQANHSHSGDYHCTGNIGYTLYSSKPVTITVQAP
# Experiments:
# [1] = target: T2, FcγRIIIa extracellular domain with C-terminal His tag (human, UniProt P08637 17-208); assay: SPR, binding relative to GpH7-A5/GpH7-B3/GpL16-k0 = 100
# T2 construct: extracellular domain; also called 3a; FcgRIIIa
# T2 sequence (P08637 17-208): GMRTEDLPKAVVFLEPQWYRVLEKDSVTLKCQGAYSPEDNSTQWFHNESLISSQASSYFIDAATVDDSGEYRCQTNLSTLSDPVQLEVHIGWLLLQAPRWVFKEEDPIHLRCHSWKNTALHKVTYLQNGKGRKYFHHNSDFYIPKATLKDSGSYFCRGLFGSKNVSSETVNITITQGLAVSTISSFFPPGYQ
# [2] = target: T1, FcγRIIb extracellular domain with …; assay: as above
# [3] = target: T2, FcγRIIIa extracellular domain with …; assay: SPR; ratio of He/Con_3a (FcγRIIIa) to He/Con_2b (FcγRIIb)
# Experimental: The heterodimerized antibodies He Abs in which one of the H chains was introduced with an alteration were assayed for their binding activities to each activating FcγR and inhibitory FcγR according to the method described in Example 4. […] The activating FcγRs in FIGS. 26, 27, 28, and 29 are FcγRIa, FcγRIIa (R), FcγRIIa (H), and FcγRIIIa, respectively.
# Analysis of interaction between objective antibody and the FcγR was carried out using Biacore T100 (GE Healthcare). HBS-EP+ (GE Healthcare) was used as the running buffer, and the measurement temperature was set to 25° C. Chips produced by immobilizing the antigen peptide by the amine coupling method to a Series S Sencor Chip CM5 (GE Healthcare), or alternatively, chips produced by allowing preliminarily biotinylated antigen peptides to interact with and immobilize onto a Series S Sensor Chip SA (certified) (GE Healthcare) were used. Antibodies of interest were captured onto an antigen peptide-immobilized chip, and allowed to interact to each FcγR diluted with running buffer. To regenerate and repeatedly use the chip, the antibodies captured on the chip were washed off by reacting 10 mM glycine-HCl, pH 1.5.
Binder,He/Con_3a [1],He/Con_2b [2],He_3a/2b (IIIa/IIb) [3]
"GpH7-A5/GpH7-B3 variant L234_15Y/GpL16-k0 (antibody, human IgG1, kappa, also called He Ab; GpH7-A5/GpH7-B3-01-15Y/GpL16-k0) heavy 1: not shown heavy 2: not shown light: DIVMTQSPLSLPVTPGEPASISCQASESLVHSNRNTYLHWYLQKPGQSPQLLIYKVSNRFSGVPDRFSGSGSGTDFTLKISRVEAEDVGVYYCSQNTHVPPTFGQGTKVEIERTVAAPSVFIFPPSDEQLKSGTASVVCLLNNFYPREAKVQWKVDNALQSGNSQESVTEQDSKDSTYSLSSTLTLSKADYEKHKVYACEVTHQGLSSPVTKSFNRGEC",130 % of control,96.3 % of control,1.35
"GpH7-A5/GpH7-B3 variant H268_06M/GpL16-k0 (antibody, human IgG1, kappa, also called He Ab) heavy 1: not shown heavy 2: not shown light: DIVMTQSPLSLPVTPGEPASISCQASESLVHSNRNTYLHWYLQKPGQSPQLLIYKVSNRFSGVPDRFSGSGSGTDFTLKISRVEAEDVGVYYCSQNTHVPPTFGQGTKVEIERTVAAPSVFIFPPSDEQLKSGTASVVCLLNNFYPREAKVQWKVDNALQSGNSQESVTEQDSKDSTYSLSSTLTLSKADYEKHKVYACEVTHQGLSSPVTKSFNRGEC",80.3 % of control,65.7 % of control,1.22
"GpH7-A5/GpH7-B3 variant L234_11K/GpL16-k0 (antibody, human IgG1, kappa, also called He Ab) heavy 1: not shown heavy 2: not shown light: DIVMTQSPLSLPVTPGEPASISCQASESLVHSNRNTYLHWYLQKPGQSPQLLIYKVSNRFSGVPDRFSGSGSGTDFTLKISRVEAEDVGVYYCSQNTHVPPTFGQGTKVEIERTVAAPSVFIFPPSDEQLKSGTASVVCLLNNFYPREAKVQWKVDNALQSGNSQESVTEQDSKDSTYSLSSTLTLSKADYEKHKVYACEVTHQGLSSPVTKSFNRGEC",30.5 % of control,16.2 % of control,1.88
"GpH7-A5/GpH7-B3 variant L234_03V/GpL16-k0 (antibody, human IgG1, kappa, also called He Ab) heavy 1: not shown heavy 2: not shown light: DIVMTQSPLSLPVTPGEPASISCQASESLVHSNRNTYLHWYLQKPGQSPQLLIYKVSNRFSGVPDRFSGSGSGTDFTLKISRVEAEDVGVYYCSQNTHVPPTFGQGTKVEIERTVAAPSVFIFPPSDEQLKSGTASVVCLLNNFYPREAKVQWKVDNALQSGNSQESVTEQDSKDSTYSLSSTLTLSKADYEKHKVYACEVTHQGLSSPVTKSFNRGEC",91.4 % of control,73.1 % of control,1.25
"GpH7-A5/GpH7-B3 variant L235_03V/GpL16-k0 (antibody, human IgG1, kappa, also called He Ab) heavy 1: not shown heavy 2: not shown light: DIVMTQSPLSLPVTPGEPASISCQASESLVHSNRNTYLHWYLQKPGQSPQLLIYKVSNRFSGVPDRFSGSGSGTDFTLKISRVEAEDVGVYYCSQNTHVPPTFGQGTKVEIERTVAAPSVFIFPPSDEQLKSGTASVVCLLNNFYPREAKVQWKVDNALQSGNSQESVTEQDSKDSTYSLSSTLTLSKADYEKHKVYACEVTHQGLSSPVTKSFNRGEC",98 % of control,66.4 % of control,1.48
"GpH7-A5/GpH7-B3 variant L234_16H/GpL16-k0 (antibody, human IgG1, kappa, also called He Ab) heavy 1: not shown heavy 2: not shown light: DIVMTQSPLSLPVTPGEPASISCQASESLVHSNRNTYLHWYLQKPGQSPQLLIYKVSNRFSGVPDRFSGSGSGTDFTLKISRVEAEDVGVYYCSQNTHVPPTFGQGTKVEIERTVAAPSVFIFPPSDEQLKSGTASVVCLLNNFYPREAKVQWKVDNALQSGNSQESVTEQDSKDSTYSLSSTLTLSKADYEKHKVYACEVTHQGLSSPVTKSFNRGEC",79.5 % of control,59.4 % of control,1.34
"GpH7-A5/GpH7-B3 variant L234_05P/GpL16-k0 (antibody, human IgG1, kappa, also called He Ab) heavy 1: not shown heavy 2: not shown light: DIVMTQSPLSLPVTPGEPASISCQASESLVHSNRNTYLHWYLQKPGQSPQLLIYKVSNRFSGVPDRFSGSGSGTDFTLKISRVEAEDVGVYYCSQNTHVPPTFGQGTKVEIERTVAAPSVFIFPPSDEQLKSGTASVVCLLNNFYPREAKVQWKVDNALQSGNSQESVTEQDSKDSTYSLSSTLTLSKADYEKHKVYACEVTHQGLSSPVTKSFNRGEC",88.1 % of control,72.9 % of control,1.21

# The remaining lines, values ahead:
He/Con_3a [1],He/Con_2b [2],He_3a/2b (IIIa/IIb) [3],Binder
32.5 % of control,26.8 % of control,1.21,"GpH7-A5/GpH7-B3 variant G236_08L/GpL16-k0 (antibody, human IgG1, kappa, also called He Ab) heavy 1: not shown heavy 2: not shown light: DIVMTQSPLSLPVTPGEPASISCQASESLVHSNRNTYLHWYLQKPGQSPQLLIYKVSNRFSGVPDRFSGSGSGTDFTLKISRVEAEDVGVYYCSQNTHVPPTFGQGTKVEIERTVAAPSVFIFPPSDEQLKSGTASVVCLLNNFYPREAKVQWKVDNALQSGNSQESVTEQDSKDSTYSLSSTLTLSKADYEKHKVYACEVTHQGLSSPVTKSFNRGEC"
36.9 % of control,18.9 % of control,1.95,"GpH7-A5/GpH7-B3 variant L234_12R/GpL16-k0 (antibody, human IgG1, kappa, also called He Ab) heavy 1: not shown heavy 2: not shown light: DIVMTQSPLSLPVTPGEPASISCQASESLVHSNRNTYLHWYLQKPGQSPQLLIYKVSNRFSGVPDRFSGSGSGTDFTLKISRVEAEDVGVYYCSQNTHVPPTFGQGTKVEIERTVAAPSVFIFPPSDEQLKSGTASVVCLLNNFYPREAKVQWKVDNALQSGNSQESVTEQDSKDSTYSLSSTLTLSKADYEKHKVYACEVTHQGLSSPVTKSFNRGEC"
43.1 % of control,27.9 % of control,1.54,"GpH7-A5/GpH7-B3 variant G236_16H/GpL16-k0 (antibody, human IgG1, kappa, also called He Ab) heavy 1: not shown heavy 2: not shown light: DIVMTQSPLSLPVTPGEPASISCQASESLVHSNRNTYLHWYLQKPGQSPQLLIYKVSNRFSGVPDRFSGSGSGTDFTLKISRVEAEDVGVYYCSQNTHVPPTFGQGTKVEIERTVAAPSVFIFPPSDEQLKSGTASVVCLLNNFYPREAKVQWKVDNALQSGNSQESVTEQDSKDSTYSLSSTLTLSKADYEKHKVYACEVTHQGLSSPVTKSFNRGEC"
12.5 % of control,6.8 % of control,1.84,"GpH7-A5/GpH7-B3 variant G236_12R/GpL16-k0 (antibody, human IgG1, kappa, also called He Ab) heavy 1: not shown heavy 2: not shown light: DIVMTQSPLSLPVTPGEPASISCQASESLVHSNRNTYLHWYLQKPGQSPQLLIYKVSNRFSGVPDRFSGSGSGTDFTLKISRVEAEDVGVYYCSQNTHVPPTFGQGTKVEIERTVAAPSVFIFPPSDEQLKSGTASVVCLLNNFYPREAKVQWKVDNALQSGNSQESVTEQDSKDSTYSLSSTLTLSKADYEKHKVYACEVTHQGLSSPVTKSFNRGEC"
58.8 % of control,35.4 % of control,1.66,"GpH7-A5/GpH7-B3 variant L235_01G/GpL16-k0 (antibody, human IgG1, kappa, also called He Ab) heavy 1: not shown heavy 2: not shown light: DIVMTQSPLSLPVTPGEPASISCQASESLVHSNRNTYLHWYLQKPGQSPQLLIYKVSNRFSGVPDRFSGSGSGTDFTLKISRVEAEDVGVYYCSQNTHVPPTFGQGTKVEIERTVAAPSVFIFPPSDEQLKSGTASVVCLLNNFYPREAKVQWKVDNALQSGNSQESVTEQDSKDSTYSLSSTLTLSKADYEKHKVYACEVTHQGLSSPVTKSFNRGEC"
121 % of control,39.5 % of control,3.06,"GpH7-A5/GpH7-B3 variant G236_15Y/GpL16-k0 (antibody, human IgG1, kappa, also called He Ab) heavy 1: not shown heavy 2: not shown light: DIVMTQSPLSLPVTPGEPASISCQASESLVHSNRNTYLHWYLQKPGQSPQLLIYKVSNRFSGVPDRFSGSGSGTDFTLKISRVEAEDVGVYYCSQNTHVPPTFGQGTKVEIERTVAAPSVFIFPPSDEQLKSGTASVVCLLNNFYPREAKVQWKVDNALQSGNSQESVTEQDSKDSTYSLSSTLTLSKADYEKHKVYACEVTHQGLSSPVTKSFNRGEC"
71.1 % of control,54.7 % of control,1.3,"GpH7-A5/GpH7-B3 variant L235_05P/GpL16-k0 (antibody, human IgG1, kappa, also called He Ab) heavy 1: not shown heavy 2: not shown light: DIVMTQSPLSLPVTPGEPASISCQASESLVHSNRNTYLHWYLQKPGQSPQLLIYKVSNRFSGVPDRFSGSGSGTDFTLKISRVEAEDVGVYYCSQNTHVPPTFGQGTKVEIERTVAAPSVFIFPPSDEQLKSGTASVVCLLNNFYPREAKVQWKVDNALQSGNSQESVTEQDSKDSTYSLSSTLTLSKADYEKHKVYACEVTHQGLSSPVTKSFNRGEC"
103 % of control,80.9 % of control,1.27,"GpH7-A5/GpH7-B3 variant L234_07I/GpL16-k0 (antibody, human IgG1, kappa, also called He Ab) heavy 1: not shown heavy 2: not shown light: DIVMTQSPLSLPVTPGEPASISCQASESLVHSNRNTYLHWYLQKPGQSPQLLIYKVSNRFSGVPDRFSGSGSGTDFTLKISRVEAEDVGVYYCSQNTHVPPTFGQGTKVEIERTVAAPSVFIFPPSDEQLKSGTASVVCLLNNFYPREAKVQWKVDNALQSGNSQESVTEQDSKDSTYSLSSTLTLSKADYEKHKVYACEVTHQGLSSPVTKSFNRGEC"
79.8 % of control,60.3 % of control,1.32,"GpH7-A5/GpH7-B3 variant L234_19Q/GpL16-k0 (antibody, human IgG1, kappa, also called He Ab) heavy 1: not shown heavy 2: not shown light: DIVMTQSPLSLPVTPGEPASISCQASESLVHSNRNTYLHWYLQKPGQSPQLLIYKVSNRFSGVPDRFSGSGSGTDFTLKISRVEAEDVGVYYCSQNTHVPPTFGQGTKVEIERTVAAPSVFIFPPSDEQLKSGTASVVCLLNNFYPREAKVQWKVDNALQSGNSQESVTEQDSKDSTYSLSSTLTLSKADYEKHKVYACEVTHQGLSSPVTKSFNRGEC"
135 % of control,58.2 % of control,2.33,"GpH7-A5/GpH7-B3 variant G236_20W/GpL16-k0 (antibody, human IgG1, kappa, also called He Ab; GpH7-A5/GpH7-B3-03-20W/GpL16-k0) heavy 1: not shown heavy 2: not shown light: DIVMTQSPLSLPVTPGEPASISCQASESLVHSNRNTYLHWYLQKPGQSPQLLIYKVSNRFSGVPDRFSGSGSGTDFTLKISRVEAEDVGVYYCSQNTHVPPTFGQGTKVEIERTVAAPSVFIFPPSDEQLKSGTASVVCLLNNFYPREAKVQWKVDNALQSGNSQESVTEQDSKDSTYSLSSTLTLSKADYEKHKVYACEVTHQGLSSPVTKSFNRGEC"
